Measurements taken from IntAct's records for PubMed 31515488.

B1: Ornithine decarboxylase antizyme 3 (Homo sapiens), Q9UMX2 (parent)
chain: MPCKRCRPSVYSLSYIKRGKTRNYLYPIWSPYAYYLYCYKYRITLREKMLPRCYKSITYKEEEDLTLQPRSCLQCSESLVGLQEGKSTEQGNHDQLKELYSAGNLTVLATDPLLHQDPVQLDFHFRLTSQTSAHWHGLLCDRRLFLDIPYQALDQGNRESLTATLEYVEEKTNVDSVFVNFQNDRNDRGALLRAFSYMGFEVVRPDHPALPPLDNVIFMVYPLERDVGHLPSEPP
partner: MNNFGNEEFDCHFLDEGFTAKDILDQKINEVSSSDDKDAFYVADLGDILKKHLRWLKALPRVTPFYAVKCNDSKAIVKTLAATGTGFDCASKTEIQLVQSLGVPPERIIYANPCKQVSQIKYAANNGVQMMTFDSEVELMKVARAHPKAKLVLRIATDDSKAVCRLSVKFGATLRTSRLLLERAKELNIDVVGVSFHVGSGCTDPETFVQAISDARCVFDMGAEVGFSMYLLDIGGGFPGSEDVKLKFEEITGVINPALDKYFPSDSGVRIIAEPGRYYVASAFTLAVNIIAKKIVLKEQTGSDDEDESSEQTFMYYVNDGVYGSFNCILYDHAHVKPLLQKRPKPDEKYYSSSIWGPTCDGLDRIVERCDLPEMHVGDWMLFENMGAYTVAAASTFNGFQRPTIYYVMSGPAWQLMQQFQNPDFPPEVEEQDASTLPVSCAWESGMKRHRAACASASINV
B2: Keratin, type II cytoskeletal 79 (Homo sapiens), Q5XKE5 (parent)
chain: MRSSVSRQTYSTKGGFSSNSASGGSGSQARTSFSSVTVSRSSGSGGGAHCGPGTGGFGSRSLYNLGGHKSISVSVAGGALLGRALGGFGFGSRAFMGQGAGRQTFGPACPPGGIQEVTVNQSLLTPLHVEIDPEIQRVRTQEREQIKTLNNKFASFIDKVRFLEQQNKVLETKWALLQEQGQNLGVTRNNLEPLFEAYLGSMRSTLDRLQSERGRLDSELRNVQDLVEDFKNKYEDEINKHTAAENEFVVLKKDVDAAYMGRMDLHGKVGTLTQEIDFLQQLYEMELSQVQTHVSNTNVVLSMDNNRNLDLDSIIAEVKAQYELIAQRSRAEAEAWYQTKYEELQVTAGKHGDNLRDTKNEIAELTRTIQRLQGEADAAKKQCQQLQTAIAEAEQRGELALKDAQKKLGDLDVALHQAKEDLTRLLRDYQELMNVKLALDVEIATYRKLLESEESRMSGECPSAVSISVTGNSTTVCGGGAASFGGGISLGGSGGATKGGFSTNVGYSTVKGGPVSAGTSILRKTTTVKTSSQRY
partner: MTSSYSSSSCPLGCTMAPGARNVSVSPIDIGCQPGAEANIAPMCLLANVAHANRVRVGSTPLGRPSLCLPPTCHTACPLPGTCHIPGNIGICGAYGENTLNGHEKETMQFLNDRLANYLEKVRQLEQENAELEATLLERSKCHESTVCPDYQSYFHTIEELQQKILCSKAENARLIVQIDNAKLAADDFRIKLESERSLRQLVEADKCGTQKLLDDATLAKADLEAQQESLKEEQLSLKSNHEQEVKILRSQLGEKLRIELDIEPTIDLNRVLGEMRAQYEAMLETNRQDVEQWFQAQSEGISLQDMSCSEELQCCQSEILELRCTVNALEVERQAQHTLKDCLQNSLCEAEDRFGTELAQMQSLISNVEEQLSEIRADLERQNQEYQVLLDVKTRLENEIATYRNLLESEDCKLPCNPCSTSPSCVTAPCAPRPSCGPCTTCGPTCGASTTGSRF
B3: Fibronectin type III and SPRY domain-containing protein 2 (Homo sapiens), A1L4K1 (parent)
chain: MEEESGEELGLDRSTPKDFHFYHMDLYDSEDRLHLFPEENTRMRKVVQAEMANESRGAGDGKAQRDLQEEVDELVHLYGLEDDHELGDEFVDENIPRTGVSEYPPYMMKRRDPAREQRDWRLSGEAAEAEDLGFGGWGSAGQCQDLREAYRYTHGRASEEYECYVIPEEEDEEEAADVFCVTCKTPIRAFQKVFDEHKEHEVIPLNEALESAKDEIHKNMYKLEKQIIEMENFANHLEEVFITVEENFGKQEQNFESHYNEILETLAQKYEEKIQALGEKKKEKLEALYGQLVSCGENLDTCKELMETIEEMCHEEKVDFIKDAVAMADRLGKFLKTKTDVEISAQPEFEDQTLDFSDVEQLMGSINTIPAPSAPVINPQVPNSATGSSVRVCWSLYSDDTVESYQLSYRPVQDSSPGTDQAEFTVTVKETYCSVTNLVPNTQYEFWVTAHNRAGPSPSSERAVYMTAPSPPIIKTKEIRSCEEAVLICWESGNLNPVDSYTVELTQAESPEASGVTESVVGIPTCESVVQLQPGRSYIIYVRALNMGGPSVRSEPATVHTIGSYFRLNKDTCHPWLTISEDGLTAVRSERRTPARELSPSDTHFTRCVAVMGNLIPVRGHHYWEVEVDEHLDYRVGVAFADVRKQEDLGANCLSWCMRHTFASSRHKYEFLHNRTTPDIRITVPPKKIGILLDYEHSKLSFFNVDLSQHLYTFSCQLHEFVHPCFSLEKPGCLKVHNGISMPKHVTFY
partner: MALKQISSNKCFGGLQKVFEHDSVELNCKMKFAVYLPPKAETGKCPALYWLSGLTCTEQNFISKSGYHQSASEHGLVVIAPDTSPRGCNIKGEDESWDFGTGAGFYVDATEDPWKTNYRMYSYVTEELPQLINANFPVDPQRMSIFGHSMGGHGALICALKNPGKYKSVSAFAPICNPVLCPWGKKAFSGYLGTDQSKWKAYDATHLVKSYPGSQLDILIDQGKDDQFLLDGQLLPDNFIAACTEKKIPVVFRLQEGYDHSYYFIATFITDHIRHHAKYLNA
B4: Actin-associated protein FAM107A (Homo sapiens), O95990 (parent)
chain: MYSEIQRERADIGGLMARPEYREWNPELIKPKKLLNPVKASRSHQELHRELLMNHRRGLGVDSKPELQRVLEHRRRNQLIKKKKEELEAKRLQCPFEQELLRRQQRLNQLEKPPEKEEDHAPEFIKVRENLRRIATLTSEEREL

Variants of: B1
Details: with dcor_human ODC1, P11926

effect of a mutation on the interaction | Variant
disrupting interaction strength | MPCKRCRPSVYSLSYIKRGKTRNYLYPIWSPYAYYLYCYKYRITLREKMLPRCYKSITYKEEEDLTLQPRSCLQCSESLVGLQEGKSTEQGNHDQLKELYSAGNLTVLATDPLLHQDPVQLDFHFRLTSQTSAHWHGLLCDRRLFLDIPYQALDQGNRESLTATLEYVEEKTNADSVFVNFQNDRNDRGALLRAFSYMGFEVVRPDHPALPPLDNVIFMVYPLERDVGHLPSEPP [V174A]
disrupting interaction strength | MPCKRCRPSVYSLSYIKRGKTRNYLYPIWSPYAYYLYCYKYRITLREKMLPRCYKSITYKEEEDLTLQPRSCLQCSESLVGLQEGKSTEQGNHDQLKELYSAGNLTVLATDPLLHQDPVQLDFHFRLTSQTSAHWHGLLCDRRLFLDIPYQALDQGNRESLTATLEYVEEKTNVDSVFVNFQNDRNDRGALLQAFSYMGFEVVRPDHPALPPLDNVIFMVYPLERDVGHLPSEPP [R193Q]

Variants of: B2
Details: with krt38_human KRT38, O76015

effect of a mutation on the interaction | Variant
with no effect | MRSSVSRQTYSTKGGFSSNSASGGSGSQARTSFSSVTVSRSSGSGGGAHCGPGTGGFGSRSLYNLGGHKSISVSVAGGALLGRALGGFGFGSRAFMGQGAGRQTFGPACPPGGIQEVTVNQSLLTPLHVEIDPEIQRVRTQEREQIKTLNNKFASFIDKVRFLEQQNKVLETKWALLQEQGQNLGVTRNNLEPLFEAYLGSMRSTLDRLQSERGRLDSELRNVQDLVEDFKNKYEDEINKHTAAENEFVVLKKDVDAAYMGRMDLRGKVGTLTQEIDFLQQLYEMELSQVQTHVSNTNVVLSMDNNRNLDLDSIIAEVKAQYELIAQRSRAEAEAWYQTKYEELQVTAGKHGDNLRDTKNEIAELTRTIQRLQGEADAAKKQCQQLQTAIAEAEQRGELALKDAQKKLGDLDVALHQAKEDLTRLLRDYQELMNVKLALDVEIATYRKLLESEESRMSGECPSAVSISVTGNSTTVCGGGAASFGGGISLGGSGGATKGGFSTNVGYSTVKGGPVSAGTSILRKTTTVKTSSQRY [H266R]

Variants of: B3
Details: with estd_human ESD

effect of a mutation on the interaction | Variant
with no effect | K333T

Variants of: B4
Details: with cc136_human CCDC136, Q96JN2
cc136_human CCDC136, Q96JN2, sequence (Q96JN2 whole entry): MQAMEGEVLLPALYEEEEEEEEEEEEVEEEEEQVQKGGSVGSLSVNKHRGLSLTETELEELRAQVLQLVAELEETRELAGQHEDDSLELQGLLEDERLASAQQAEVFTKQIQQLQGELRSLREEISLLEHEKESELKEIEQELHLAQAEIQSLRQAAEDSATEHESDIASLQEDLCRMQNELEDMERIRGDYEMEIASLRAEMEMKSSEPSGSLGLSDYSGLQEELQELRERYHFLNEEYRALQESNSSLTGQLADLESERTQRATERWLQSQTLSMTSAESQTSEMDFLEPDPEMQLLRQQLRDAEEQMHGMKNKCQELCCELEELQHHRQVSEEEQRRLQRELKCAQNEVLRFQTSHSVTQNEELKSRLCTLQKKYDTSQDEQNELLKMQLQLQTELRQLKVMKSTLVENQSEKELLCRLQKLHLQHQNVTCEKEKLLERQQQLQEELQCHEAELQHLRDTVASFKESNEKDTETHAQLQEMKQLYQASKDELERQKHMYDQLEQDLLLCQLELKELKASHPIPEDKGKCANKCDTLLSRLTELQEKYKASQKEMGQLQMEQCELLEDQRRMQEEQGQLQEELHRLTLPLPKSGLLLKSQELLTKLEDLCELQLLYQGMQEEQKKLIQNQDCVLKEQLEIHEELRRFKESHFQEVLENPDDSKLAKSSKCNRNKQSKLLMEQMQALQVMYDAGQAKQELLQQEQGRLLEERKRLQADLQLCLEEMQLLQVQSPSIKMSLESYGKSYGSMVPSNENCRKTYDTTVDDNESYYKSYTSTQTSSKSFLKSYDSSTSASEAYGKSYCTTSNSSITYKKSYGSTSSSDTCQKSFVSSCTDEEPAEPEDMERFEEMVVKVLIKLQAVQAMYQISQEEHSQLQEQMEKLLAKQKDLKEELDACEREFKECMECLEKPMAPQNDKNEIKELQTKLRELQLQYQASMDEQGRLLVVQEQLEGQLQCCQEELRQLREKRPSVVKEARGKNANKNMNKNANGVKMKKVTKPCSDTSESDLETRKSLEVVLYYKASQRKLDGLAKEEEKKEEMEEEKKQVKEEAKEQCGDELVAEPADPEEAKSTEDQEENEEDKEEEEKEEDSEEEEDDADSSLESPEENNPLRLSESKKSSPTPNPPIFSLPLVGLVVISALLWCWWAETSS

effect of a mutation on the interaction | Variant
with no effect | MYSEIQRERADIGGLMARPEYREWNPELIKPKKLLNPVKASRSHQELHRELLMNHRRGLGVDRKPELQRVLEHRRRNQLIKKKKEELEAKRLQCPFEQELLRRQQRLNQLEKPPEKEEDHAPEFIKVRENLRRIATLTSEEREL [S63R]
disrupting interaction strength | MYSEIQRERADIGGLMARPEYREWNPELIKPKKLLNPVKASRSHQELHRELLMNHRRGLGVDSKPELQRVLEHRRRNQLIKKKKEELEAKRLQCPFEQELLRRQQRLNQLEKPPEKEEDHAPEFIKVRENLRRIATLTSEQREL [E141Q]

Variants of: B4
Details: with traf2_human TRAF2, Q12933

effect of a mutation on the interaction | Variant
with no effect | MYSEIQRERADIGGLMARPEYREWNPELIKPKKLLNPVKASRSHQELHRELLMNHRRGLGVDRKPELQRVLEHRRRNQLIKKKKEELEAKRLQCPFEQELLRRQQRLNQLEKPPEKEEDHAPEFIKVRENLRRIATLTSEEREL [S63R]
disrupting interaction strength | MYSEIQRERADIGGLMARPEYREWNPELIKPKKLLNPVKASRSHQELHRELLMNHRRGLGVDSKPELQRVLEHRRRNQLIKKKKEELEAKRLQCPFEQELLRRQQRLNQLEKPPEKEEDHAPEFIKVRENLRRIATLTSEQREL [E141Q]
